Read-outs that look alike come from different tables or passages of the source. One block for each binder: values may come before it.
Assays:
[1] = biological target: T1, cynomolgus KLRB1 on CHO-K1 (cynomolgus); test: FACS
T1 chain: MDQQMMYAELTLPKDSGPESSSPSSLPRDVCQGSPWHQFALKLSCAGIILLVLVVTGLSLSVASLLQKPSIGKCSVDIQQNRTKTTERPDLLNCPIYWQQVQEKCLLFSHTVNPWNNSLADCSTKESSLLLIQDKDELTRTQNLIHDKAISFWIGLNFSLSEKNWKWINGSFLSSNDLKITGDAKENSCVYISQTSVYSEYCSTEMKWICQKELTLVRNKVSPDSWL

[2] = biological target: human KLRB1 ECD (human); test: ELISA
Sequence of human KLRB1 ECD (human) (chain, as listed by the source): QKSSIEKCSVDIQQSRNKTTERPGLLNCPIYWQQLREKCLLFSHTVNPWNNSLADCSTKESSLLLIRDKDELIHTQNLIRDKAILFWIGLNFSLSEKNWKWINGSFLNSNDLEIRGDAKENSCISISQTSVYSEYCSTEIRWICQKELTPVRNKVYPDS

[3] = biological target: human KLRB1 on CHO-K1 (human); test: FACS
Sequence of human KLRB1 on CHO-K1 (human) (chain, as listed by the source): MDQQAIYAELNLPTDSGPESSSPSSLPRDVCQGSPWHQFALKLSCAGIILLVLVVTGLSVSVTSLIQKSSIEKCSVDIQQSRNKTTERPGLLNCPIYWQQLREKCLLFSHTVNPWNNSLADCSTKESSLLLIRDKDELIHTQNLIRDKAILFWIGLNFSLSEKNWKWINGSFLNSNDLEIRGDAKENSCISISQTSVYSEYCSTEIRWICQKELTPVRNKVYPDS

[4] = biological target: human KLRB1 ECD (human); test: SPR
[5] = biological target: human KLRB1 on CHO-K1 (human); test: competition, CLEC2D, FACS
[6] = biological target: human KLRB1 ECD (human); test: ELISA; remark: listed apart in the source
[7] = biological target: T2, cynomolgus KLRB1 ECD (cynomolgus); test: ELISA
T2 chain: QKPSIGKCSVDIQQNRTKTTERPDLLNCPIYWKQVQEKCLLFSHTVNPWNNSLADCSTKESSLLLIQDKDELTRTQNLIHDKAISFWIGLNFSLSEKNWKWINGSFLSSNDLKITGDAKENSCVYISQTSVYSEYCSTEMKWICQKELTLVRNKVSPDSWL

[8] = biological target: T1, cynomolgus KLRB1 on CHO-K1; test: FACS
[9] = biological target: human KLRB1 on CHO-K1 (human); test: FACS; remark: listed apart in the source

binding result [1]: no binding | EC50 [2]: 0.0148 nM | EC50 [3]: 5.39 nM
B1: Hu50A8F2-15 (antibody, V domains shown)
VH: QVQLVQSGAEVKKPGASVKVSCKASGYTFIDYYINWVRQAPGQGLEWIGWIFPGSGHTKYNENFKGKVTLTVDTSTSTVYMELSSLRSEDTAVYFCARGDRSALGYFDYWGQGTTVTVSS
VL: DIQLTQSPSSLSASVGDRVTITCTASSSVSSTYLHWYQQKPGKSPKLLIYSTSNLASGVPSRFSGSGSGTDYTLTISSLQPEDFATYYCHQYHRSPLTFGQGTKLEIK

binding result [1]: no binding | EC50 [2]: 0.0103 nM | EC50 [3]: 5.27 nM
B2: Hu50A8F2-16 (antibody, V domains shown)
VH: QVQLVQSGAEVKKPGASVKVSCKASGYTFIDYYINWVRQAPGQGLEWIGWIFPGSGHTKYNENFKGKVTLTVDTSTSTVYMELSSLRSEDTAVYFCARGDRSALGYFDYWGQGTTVTVSS
VL: DIQLTQSPSSLSASVGDRVTITCTASSSVSSTYLHWYQQKPGKSPKLLIYSTSNLASGVPSRFSGSGSGTDYTLTISSLQPEDAATYYCHQYHRSPLTFGQGTKLEIK

Kd [4]: 0.153 nM
B3: Hu22F10G3-1.4 (antibody, V domains shown)
VH: QVQLQESGPGLVKPSQTLSLTCTVSGYSLTSDFAWNWIRQHPGKGLEWIGDIRYSGSTDYNPSLKGRVTISVDTSKNQFSLKLSSVTAADTAVYYCARGGYYGYDEGYPMDYWGQGTLVTVSS
VL: DIVMTQSPDSLAVSLGERATISCRASESVDVYGNSFMHWYQQKPGQPPKLLIYLAFNLKSGVPARFSGSGSGTDFTLTISSLQAEDVATYYCQQNNEDPFTFGQGTKLEIK

Kd [4]: 0.121 nM
B4: Hu22F10G3-4.4 (antibody, V domains shown)
VH: QVQLQESGPGLVKPSQTLSLTCTVSGYSLTSDFAWNWIRQFPGKGLEWMGDIRYSGSTDYNPSLKGRSTISRDTSKNQFFLKLSSVTAADTAVYYCARGGYYGYDEGYPMDYWGQGTLVTVSS
VL: DIVMTQSPDSLAVSLGERATISCRASESVDVYGNSFMHWYQQKPGQPPKLLIYLAFNLKSGVPARFSGSGSGTDFTLTISSLQAEDVATYYCQQNNEDPFTFGQGTKLEIK

Kd [4]: 0.13 nM
B5: Hu22F10G3-4.2 (antibody, V domains shown)
VH: QVQLQESGPGLVKPSQTLSLTCTVSGYSLTSDFAWNWIRQFPGKGLEWMGDIRYSGSTDYNPSLKGRSTISRDTSKNQFFLKLSSVTAADTAVYYCARGGYYGYDEGYPMDYWGQGTLVTVSS
VL: DIVMTQSPDSLAVSLGERATINCRASESVDVYGNSFMHWYQQKPGQPPKLLIYLAFNLKSGVPARFSGSGSGTDFTLTISSLQAEDVAVYYCQQNNEDPFTFGQGTKLEIK

Kd [4]: 0.135 nM
B6: Hu22F10G3-2.2 (antibody, V domains shown)
VH: QVQLQESGPGLVKPSQTLSLTCTVSGYSLTSDFAWNWIRQHPGKGLEWMGDIRYSGSTDYNPSLKGRVTISRDTSKNQFSLKLSSVTAADTAVYYCARGGYYGYDEGYPMDYWGQGTLVTVSS
VL: DIVMTQSPDSLAVSLGERATINCRASESVDVYGNSFMHWYQQKPGQPPKLLIYLAFNLKSGVPARFSGSGSGTDFTLTISSLQAEDVAVYYCQQNNEDPFTFGQGTKLEIK

Kd [4]: 0.122 nM
B7: Hu22F10G3-3.1 (antibody, V domains shown)
VH: QVQLQESGPGLVKPSQTLSLTCTVSGYSLTSDFAWNWIRQHPGKGLEWMGDIRYSGSTDYNPSLKGRSTISRDTSKNQFSLKLSSVTAADTAVYYCARGGYYGYDEGYPMDYWGQGTLVTVSS
VL: DIVMTQSPDSLAVSLGERATINCRASESVDVYGNSFMHWYQQKPGQPPKLLIYLAFNLKSGVPDRFSGSGSGTDFTLTISSLQAEDVAVYYCQQNNEDPFTFGQGTKLEIK

Kd [4]: 0.152 nM
B8: Hu22F10G3-1.2 (antibody, V domains shown)
VH: QVQLQESGPGLVKPSQTLSLTCTVSGYSLTSDFAWNWIRQHPGKGLEWIGDIRYSGSTDYNPSLKGRVTISVDTSKNQFSLKLSSVTAADTAVYYCARGGYYGYDEGYPMDYWGQGTLVTVSS
VL: DIVMTQSPDSLAVSLGERATINCRASESVDVYGNSFMHWYQQKPGQPPKLLIYLAFNLKSGVPARFSGSGSGTDFTLTISSLQAEDVAVYYCQQNNEDPFTFGQGTKLEIK

Kd [4]: 0.104 nM
B9: Hu22F10G3-2.1 (antibody, V domains shown)
VH: QVQLQESGPGLVKPSQTLSLTCTVSGYSLTSDFAWNWIRQHPGKGLEWMGDIRYSGSTDYNPSLKGRVTISRDTSKNQFSLKLSSVTAADTAVYYCARGGYYGYDEGYPMDYWGQGTLVTVSS
VL: DIVMTQSPDSLAVSLGERATINCRASESVDVYGNSFMHWYQQKPGQPPKLLIYLAFNLKSGVPDRFSGSGSGTDFTLTISSLQAEDVAVYYCQQNNEDPFTFGQGTKLEIK

Kd [4]: 0.116 nM
B10: Hu22F10G3-2.4 (antibody, V domains shown)
VH: QVQLQESGPGLVKPSQTLSLTCTVSGYSLTSDFAWNWIRQHPGKGLEWMGDIRYSGSTDYNPSLKGRVTISRDTSKNQFSLKLSSVTAADTAVYYCARGGYYGYDEGYPMDYWGQGTLVTVSS
VL: DIVMTQSPDSLAVSLGERATISCRASESVDVYGNSFMHWYQQKPGQPPKLLIYLAFNLKSGVPARFSGSGSGTDFTLTISSLQAEDVATYYCQQNNEDPFTFGQGTKLEIK

Kd [4]: 0.177 nM
B11: Hu22F10G3-1.3 (antibody, V domains shown)
VH: QVQLQESGPGLVKPSQTLSLTCTVSGYSLTSDFAWNWIRQHPGKGLEWIGDIRYSGSTDYNPSLKGRVTISVDTSKNQFSLKLSSVTAADTAVYYCARGGYYGYDEGYPMDYWGQGTLVTVSS
VL: DIVMTQSPDSLAVSLGERATISCRASESVDVYGNSFMHWYQQKPGQPPKLLIYLAFNLKSGVPDRFSGSGSGTDFTLTISSLQAEDVAVYYCQQNNEDPFTFGQGTKLEIK

Kd [4]: 0.189 nM
B12: Hu22F10G3-3.2 (antibody, V domains shown)
VH: QVQLQESGPGLVKPSQTLSLTCTVSGYSLTSDFAWNWIRQHPGKGLEWMGDIRYSGSTDYNPSLKGRSTISRDTSKNQFSLKLSSVTAADTAVYYCARGGYYGYDEGYPMDYWGQGTLVTVSS
VL: DIVMTQSPDSLAVSLGERATINCRASESVDVYGNSFMHWYQQKPGQPPKLLIYLAFNLKSGVPARFSGSGSGTDFTLTISSLQAEDVAVYYCQQNNEDPFTFGQGTKLEIK

Kd [4]: 0.0972 nM
B13: Hu22F10G3-4.3 (antibody, V domains shown)
VH: QVQLQESGPGLVKPSQTLSLTCTVSGYSLTSDFAWNWIRQFPGKGLEWMGDIRYSGSTDYNPSLKGRSTISRDTSKNQFFLKLSSVTAADTAVYYCARGGYYGYDEGYPMDYWGQGTLVTVSS
VL: DIVMTQSPDSLAVSLGERATISCRASESVDVYGNSFMHWYQQKPGQPPKLLIYLAFNLKSGVPDRFSGSGSGTDFTLTISSLQAEDVAVYYCQQNNEDPFTFGQGTKLEIK

Kd [4]: 0.105 nM
B14: Hu22F10G3-4.1 (antibody, V domains shown)
VH: QVQLQESGPGLVKPSQTLSLTCTVSGYSLTSDFAWNWIRQFPGKGLEWMGDIRYSGSTDYNPSLKGRSTISRDTSKNQFFLKLSSVTAADTAVYYCARGGYYGYDEGYPMDYWGQGTLVTVSS
VL: DIVMTQSPDSLAVSLGERATINCRASESVDVYGNSFMHWYQQKPGQPPKLLIYLAFNLKSGVPDRFSGSGSGTDFTLTISSLQAEDVAVYYCQQNNEDPFTFGQGTKLEIK

Kd [4]: 0.18 nM
B15: Hu22F10G3-3.3 (antibody, V domains shown)
VH: QVQLQESGPGLVKPSQTLSLTCTVSGYSLTSDFAWNWIRQHPGKGLEWMGDIRYSGSTDYNPSLKGRSTISRDTSKNQFSLKLSSVTAADTAVYYCARGGYYGYDEGYPMDYWGQGTLVTVSS
VL: DIVMTQSPDSLAVSLGERATISCRASESVDVYGNSFMHWYQQKPGQPPKLLIYLAFNLKSGVPDRFSGSGSGTDFTLTISSLQAEDVAVYYCQQNNEDPFTFGQGTKLEIK

IC50 [5]: 2.16 nM | EC50 [6]: 0.0172 nM | EC50 [7]: 0.0824 nM | EC50 [8]: 5.22 nM | EC50 [9]: 1.49 nM
B16: Hu47A5H2-05 (antibody, V domains shown)
VH: QVQLVQSGAEVKKPGASVKVSCKASGYSFTGYWMHWVRQAPGQGLEWMGMIHPSDSETRLNQKFKDRVTMTVDTSTSTVYMELSSLRSEDTAVYYCASEGLRRGSFAYWGQGTLVTVSS
VL: DIVMTQSPDSLAVSLGERATINCRASESVDNYGMTFMSWYQQKPGQPPKLLIYAASNQGSGVPDRFSGSGSGTDFTLTISSLQAEDVAVYYCQQSKEVPYTFGQGTKLEIK

IC50 [5]: 2.42 nM | EC50 [6]: 0.0174 nM | EC50 [7]: 0.0306 nM | EC50 [8]: 2.55 nM | EC50 [9]: 1.68 nM
B17: Hu47A5H2-08 (antibody, V domains shown)
VH: QVQLVQSGAEVKKPGASVKVSCKASGYSFTGYWMHWVRQAPGQGLEWMGMIHPSDSETRLNQKFKDRVTMTVDTSTSTVYMELSSLRSEDTAVYYCASEGLRRGSFAYWGQGTLVTVSS
VL: EIVLTQSPATLSLSPGERATLSCRASESVDNYGMTFMSWYQQKPGQAPRLLIYAASNQGSGIPARFSGSGSGTDFTLTISSLEPEDFAVYYCQQSKEVPYTFGQGTKLEIK

IC50 [5]: 2.17 nM | EC50 [6]: 0.0263 nM | EC50 [7]: 0.02 nM | EC50 [8]: ~1.69 nM | EC50 [9]: 5.16 nM
B18: Hu47A5H2-12 (antibody, V domains shown)
VH: QVQLVQSGAEVKKPGASVKVSCKASGYSFTGYWMHWVRQAPGQGLEWMGMIHPSDSETRLNQKFKDRVTMTVDKSTSTVYMELSSLRSEDTAVYYCASEGLRRGSFAYWGQGTLVTVSS
VL: EIVLTQSPATLSLSPGERATLSCRASESVDNYGMTFMSWYQQKPGQAPRLLIYAASNQGSGIPARFSGSGSGTDFTLTISSLEPEDFAVYYCQQSKEVPYTFGQGTKLEIK
